The values that follow come from article PMC7641761.

Data set [1] has as its target Ku5D T305D;S306D;T307D;S314D;T316D (human) (UniProt P12956+P13010). The data set can be described thus: MST. As to conditions: MST: 50 mM Tris pH 8.0, 50 mM NaCl, 1 mM DTT, 24 C, 40 nM FAM-RNA, EMSA: 25 mM Hepes-KOH pH 7.5, 50 mM NaCl, 1 mM EDTA, 10% glycerol, 0.1 uM BSA …. For orientation: In EMSA bound probe runs differently from free probe, usually more slowly.
The target of data set [2] is Ku70/Ku80 heterodimer FL (baculovirus) (human) (UniProt P12956+P13010). The data set can be described thus: MST. Conditions: 1 mM DTT, 24 C, 40 nM FAM-RNA, EMSA: 25 mM Hepes-KOH pH 7.5, 50 mM NaCl, 1 mM EDTA, 10% glycerol, 0.1 uM BSA ….
Where [3] appears, read: MST: 50 mM Tris pH 8.0, 50 mM NaCl.

Ku70/Ku80 heterodimer FL (baculovirus) (human), sequence (P12956 whole entry, chain 1 of 2): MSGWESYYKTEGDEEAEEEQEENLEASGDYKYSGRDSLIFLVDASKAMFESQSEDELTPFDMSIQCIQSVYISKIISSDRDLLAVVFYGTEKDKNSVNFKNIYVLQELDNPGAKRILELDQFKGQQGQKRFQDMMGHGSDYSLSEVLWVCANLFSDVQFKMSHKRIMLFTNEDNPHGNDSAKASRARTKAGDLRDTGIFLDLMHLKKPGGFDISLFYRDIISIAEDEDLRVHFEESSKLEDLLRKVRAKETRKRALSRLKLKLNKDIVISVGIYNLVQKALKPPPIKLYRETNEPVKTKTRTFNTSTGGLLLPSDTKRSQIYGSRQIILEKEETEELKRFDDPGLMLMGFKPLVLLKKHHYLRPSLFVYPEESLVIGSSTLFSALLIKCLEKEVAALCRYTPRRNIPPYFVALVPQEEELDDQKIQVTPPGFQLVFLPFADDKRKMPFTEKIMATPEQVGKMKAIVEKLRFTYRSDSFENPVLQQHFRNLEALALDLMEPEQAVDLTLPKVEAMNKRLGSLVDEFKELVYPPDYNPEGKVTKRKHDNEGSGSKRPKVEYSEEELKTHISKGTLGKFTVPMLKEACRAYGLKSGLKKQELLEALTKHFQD
Ku70/Ku80 heterodimer FL (baculovirus) (human), sequence (P13010 1-718, chain 2 of 2): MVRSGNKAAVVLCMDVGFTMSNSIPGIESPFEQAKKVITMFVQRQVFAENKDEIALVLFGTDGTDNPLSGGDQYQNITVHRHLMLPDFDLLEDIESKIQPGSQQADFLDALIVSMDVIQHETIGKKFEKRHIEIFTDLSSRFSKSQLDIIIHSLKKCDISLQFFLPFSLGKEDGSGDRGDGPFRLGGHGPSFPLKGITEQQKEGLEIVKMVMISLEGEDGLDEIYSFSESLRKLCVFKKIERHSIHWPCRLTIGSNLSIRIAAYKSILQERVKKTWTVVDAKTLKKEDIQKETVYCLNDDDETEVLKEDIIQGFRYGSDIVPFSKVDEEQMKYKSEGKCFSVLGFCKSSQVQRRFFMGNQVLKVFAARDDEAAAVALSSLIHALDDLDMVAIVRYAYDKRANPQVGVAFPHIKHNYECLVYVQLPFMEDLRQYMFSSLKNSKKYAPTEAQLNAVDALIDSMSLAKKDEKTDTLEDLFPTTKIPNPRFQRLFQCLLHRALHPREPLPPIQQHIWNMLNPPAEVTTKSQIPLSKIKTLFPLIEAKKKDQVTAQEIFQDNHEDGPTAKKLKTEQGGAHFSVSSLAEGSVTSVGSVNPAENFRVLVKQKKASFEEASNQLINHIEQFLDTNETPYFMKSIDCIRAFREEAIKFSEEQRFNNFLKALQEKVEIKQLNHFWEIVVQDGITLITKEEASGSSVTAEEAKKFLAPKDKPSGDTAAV
Ku5D T305D;S306D;T307D;S314D;T316D (human), sequence (P12956 whole entry T305D/S306D/T307D/S314D/T316D, chain 1 of 2): as the sequence (P12956 whole entry, chain 1 of 2) above, with T305D, S306D, T307D, S314D, T316D counted along it
Ku5D T305D;S306D;T307D;S314D;T316D (human), sequence (P13010 1-718, chain 2 of 2): as the sequence (P13010 1-718, chain 2 of 2) above

The Kd is the concentration at which binding is half-saturated. In the case of FL LINP1, the binding signal (fold better than WT) in data set [1] amounted to 2. For the same substance, the equilibrium dissociation constant (Kd) in data set [2] (Hill 1.0, MST: 50 mM Tris pH 8.0, 50 mM NaCl) turned out to be 740 nM.

The substance LINP1 SL2 + SL3 returned a Kd in data set [2] (setting [3]) of 700 nM.

Turning to polyA, the Kd in data set [2] (setting [3]) worked out at 4800 nM.

The substance polyC returned a Kd in data set [2] (setting [3]) of 1290 nM. This Kd is about 3.7-fold lower than that of the substance before.

In data set [2] (setting [3]), polyU gave a dissociation constant Kd of 1400 nM.
